Measured values from patent US20120309692A1.

Biological target: recombinant human glandular kallikrein 2 (hK2) (human) (UniProt P20151)
Experiment: cell-based or functional assay

B1: α1-antichymotrypsin (ACT) (protein, human, UniProt P01011 24-423, looked up)
chain: HPNSPLDEENLTQENQDRGTHVDLGLASANVDFAFSLYKQLVLKAPDKNVIFSPLSISTALAFLSLGAHNTTLTEILKGLKFNLTETSEAEIHQSFQHLLRTLNQSSDELQLSMGNAMFVKEQLSLLDRFTEDAKRLYGSEAFATDFQDSAAAKKLINDYVKNGTRGKITDLIKDLDSQTMMVLVNYIFFKAKWEMPFDPQDTHQSRFYLSKKKWVMVPMMSLHHLTIPYFRDEELSCTVVELKYTGNASALFILPDQDKMEEVEAMLLPETLKRWRDSLEFREIGELYLPKFSISRDYNLNDILLQLGIEEAFTSKADLSGITGARNLAVSQVVHKAVLDVFEEGTEASAATAVKITLLSALVETRTIVRFNRPFLMIIVPTDTQNIFFMSKVTNPKQA
hK2 Activity (%) of inhibitor-free control, inhibitor at 0.8 µM: 100%

B2: PSTI (protein, UniProt P00995 24-79, looked up)
chain: DSLGREAKCYNELNGCTKIYDPVCGTDGNTYPNECVLCFENRKRQTSILIQKSGPC
hK2 Activity (%) of inhibitor-free control, inhibitor at 0.08 µM: 100%
hK2 Activity (%) of inhibitor-free control, inhibitor at 4 µM: 89%

B3: protein C inhibitor (PCI) (protein, UniProt P05154 20-406, looked up)
chain: HRHHPREMKKRVEDLHVGATVAPSSRRDFTFDLYRALASAAPSQSIFFSPVSISMSLAMLSLGAGSSTKMQILEGLGLNLQKSSEKELHRGFQQLLQELNQPRDGFQLSLGNALFTDLVVDLQDTFVSAMKTLYLADTFPTNFRDSAGAMKQINDYVAKQTKGKIVDLLKNLDSNAVVIMVNYIFFKAKWETSFNHKGTQEQDFYVTSETVVRVPMMSREDQYHYLLDRNLSCRVVGVPYQGNATALFILPSEGKMQQVENGLSEKTLRKWLKMFKKRQLELYLPKFSIEGSYQLEKVLPSLGISNVFTSHADLSGISNHSNIQVSEMVHKAVVEVDESGTRAAAATGTIFTFRSARLNSQRLVFNRPFLMFIVDNNILFLGKVNRP
hK2 Activity (%) of inhibitor-free control, inhibitor at 0.016 µM: 50%
hK2 Activity (%) of inhibitor-free control, inhibitor at 0.08 µM: 0%
